The values that follow are results of earlier work, collected in patent publication US20070155650A1, “Use of cathepsin z inhibitors for the treatment of rhuematoid arthritis and other autoimmune diseases” (AVENTIS PHARMACEUTICALS INC., priority 2003, published 2007).

Read-outs that look alike come from different tables or passages of the source.

In one data set the target is Cathepsin B (Homo sapiens, UniProt P07858). Conditions: result in words.
The target of the next data set is Cathepsin Z (Homo sapiens, UniProt Q9UBR2). Conditions: result in words.
Chain of Cathepsin Z (Q9UBR2 62-303): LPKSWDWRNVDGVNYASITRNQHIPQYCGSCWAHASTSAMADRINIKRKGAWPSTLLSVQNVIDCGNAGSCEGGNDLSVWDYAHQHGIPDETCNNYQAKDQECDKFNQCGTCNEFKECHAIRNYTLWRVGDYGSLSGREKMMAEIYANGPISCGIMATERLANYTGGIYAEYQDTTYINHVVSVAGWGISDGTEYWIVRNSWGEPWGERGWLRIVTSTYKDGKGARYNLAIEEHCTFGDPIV

For the molecule `CCCNC(=O)[C@H]1O[C@@H]1C(=O)N[C@H](C(=O)N1CCC[C@H]1C(=O)O)[C@@H](C)CC` [CA-074], the “Cathepsin B activity inhibited” value on Cathepsin B is on record as “block Cathepsin B activity”; on Cathepsin B (listed as CA-704), “known synthetic inhibitors of Cathepsin B”. For the same molecule, on Cathepsin Z, the “Cathepsin Z activity inhibited or not” value is on record as “inhibited”.

B1: chicken cystatin: protein inhibitor shown to inhibit Cathepsin Z activity (protein, UniProt P01038 24-139, looked up)
Cystatin: SEDRSRLLGAPVPVDENDEGLQRALQFAMAEYNRASNDKYSSRVVRVISAKRQLVSGIKYILQVEIGRTTCPKSSGDLQSCEFHDEPEMAKYTTCTFVVYSIPWLNQIKLLESKCQ
As to B1, the “Cathepsin Z activity inhibited or not” value in the data set with Cathepsin Z is reported as “inhibited”.

B2: stefin B: protein inhibitor shown to inhibit Cathepsin Z activity (protein, UniProt P04080 1-98, looked up)
Cystatin-B: MMCGAPSATQPATAETQHIADQVRSQLEEKENKKFPVFKAVSFKSQVVAGTNYFIKVHVGDEDFVHLRVFQSLPHENKPLTLSNYQTNKAKHDELTYF
As to B2, the “Cathepsin Z activity inhibited or not” value in the data set with Cathepsin Z is “inhibited”.

B3: cystatin C: protein inhibitor shown to inhibit Cathepsin Z activity (protein, UniProt P01034 27-146, looked up)
Cystatin-C: SSPGKPPRLVGGPMDASVEEEGVRRALDFAVGEYNKASNDMYHSRALQVVRARKQIVAGVNYFLDVELGRTTCTKTQPNLDNCPFHDQPHLKRKAFCSFQIYAVPWQGTMTLSKSTCQDA
In the case of B3, the “Cathepsin Z activity inhibited or not” value with Cathepsin Z is recorded as “inhibited”.

B4: stefin A: protein inhibitor shown to inhibit Cathepsin Z activity (protein, UniProt P01040 1-98, looked up)
Cystatin-A: MIPGGLSEAKPATPEIQEIVDKVKPQLEEKTNETYGKLEAVQYKTQVVAGTNYYIKVRAGDNKYMHLKVFKSLPGQNEDLVLTGYQVDKNKDDELTGF
Turning to B4, the “Cathepsin Z activity inhibited or not” value with Cathepsin Z is on record as “inhibited”.
